# B1: CDC25A (parent)
# chain: TVAGKHQDLKYISPEIMASVLNGK
# Variants of: B1
# Test: protein stability index of a GFP-peptide fusion (GPS, HEK-293T) (PSI 1-6); higher = more stable
# Settings: c terminus: a fixed tail appended
# 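Note: lentivirally expressed fusions sorted by FACS into six bins by GFP to DsRed ratio, PSI derived from sequencing read proportions per bin multiplied by bin number.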
row,Variant,protein stability index
1,TVATKHQDLKYISPEIMASVLNGK,3.11
2,TVAWKHQDLKYISPEIMASVLNGK,2.27
3,TVAVKHQDLKYISPEIMASVLNGK,3.38
4,TVARKHQDLKYISPEIMASVLNGK,3.5
5,TVAYKHQDLKYISPEIMASVLNGK,3.09
6,TVASKHQDLKYISPEIMASVLNGK,3.39
7,TVAGKHQDLKYYSPEIMASVLNGK,3.37
8,TVAGKHQDLKYVSPEIMASVLNGK,3.71
9,TVAGKHQDLKYESPEIMASVLNGK,3.83
10,TVAGKHQDLKYLSPEIMASVLNGK,3.16
11,TVAGKHQDLKYFSPEIMASVLNGK,2.94
12,TVAGKHQDLKYMSPEIMASVLNGK,3.48
13,TVAGKHQDLKYGSPEIMASVLNGK,3.82
14,TVAGKHQDLKYSSPEIMASVLNGK,3.91
15,TVAGKHQDLKYQSPEIMASVLNGK,4.04
16,TVAGKHQDLKYASPEIMASVLNGK,3.49
17,TVAGKHQDLKYWSPEIMASVLNGK,2.64
18,TVAGKHQDLKYNSPEIMASVLNGK,3.46
19,TVAGKHQDLKYTSPEIMASVLNGK,3.76
20,TVAGKHQDLKYHSPEIMASVLNGK,3.29
21,TVAGKHQDLKYRSPEIMASVLNGK,3.58
22,TVAGKHQDLKYKSPEIMASVLNGK,3.83
23,TVAGKHQDLKYDSPEIMASVLNGK,4.16
24,TVAGKHQDLKYPSPEIMASVLNGK,3.57

row,Variant,protein stability index
1,TVAGKHQDLKYCSPEIMASVLNGK,3.23
2,TVAGKHQDLKFISPEIMASVLNGK,2.77
3,TVAGKHQDLKRISPEIMASVLNGK,3.59
4,TVAGKHQDLKHISPEIMASVLNGK,3.73
5,TVAGKHQDLKIISPEIMASVLNGK,3.52
6,TVAGKHQDLKAISPEIMASVLNGK,3.29
7,TVAGKHQDLKPISPEIMASVLNGK,3.95
8,TVAGKHQDLKQISPEIMASVLNGK,3.47
9,TVAGKHQDLKCISPEIMASVLNGK,3.32
10,TVAGKHQDLKVISPEIMASVLNGK,3.29
11,TVAGKHQDLKSISPEIMASVLNGK,3.71
12,TVAGKHQDLKWISPEIMASVLNGK,2.78
13,TVAGKHQDLKDISPEIMASVLNGK,4.38
14,TVAGKHQDLKMISPEIMASVLNGK,3.16
15,TVAGKHQDLKLISPEIMASVLNGK,3.26
16,TVAGKHQDLKNISPEIMASVLNGK,3.86
17,TVAGKHQDLKEISPEIMASVLNGK,4.09
18,TVAGKHQDLKGISPEIMASVLNGK,3.87
19,TVAGKHQDLKKISPEIMASVLNGK,3.53
20,TVAGKHQDLKTISPEIMASVLNGK,3.79
21,TVAGGHQDLKYISPEIMASVLNGK,3.6
22,TVAGAHQDLKYISPEIMASVLNGK,3.45
23,TVAGRHQDLKYISPEIMASVLNGK,3.2
24,TVAGIHQDLKYISPEIMASVLNGK,2.55

row,Variant,protein stability index
1,TVAGDHQDLKYISPEIMASVLNGK,3.56
2,TVAGYHQDLKYISPEIMASVLNGK,3.03
3,TVAGEHQDLKYISPEIMASVLNGK,3.5
4,TVAGFHQDLKYISPEIMASVLNGK,3.2
5,TVAGLHQDLKYISPEIMASVLNGK,3.06
6,TVAGCHQDLKYISPEIMASVLNGK,2.61
7,TVAGWHQDLKYISPEIMASVLNGK,2.75
8,TVAGMHQDLKYISPEIMASVLNGK,3.01
9,TVAGTHQDLKYISPEIMASVLNGK,3.68
10,TVAGPHQDLKYISPEIMASVLNGK,3.17
11,TVAGQHQDLKYISPEIMASVLNGK,3.53
12,TVAGHHQDLKYISPEIMASVLNGK,3.54
13,TVAGVHQDLKYISPEIMASVLNGK,3.21
14,TVAGSHQDLKYISPEIMASVLNGK,3.5
15,TVAGNHQDLKYISPEIMASVLNGK,3.07
16,TVAGKPQDLKYISPEIMASVLNGK,3.38
17,TVAGKEQDLKYISPEIMASVLNGK,3.66
18,TVAGKIQDLKYISPEIMASVLNGK,2.63
19,TVAGKKQDLKYISPEIMASVLNGK,3.27
20,TVAGKDQDLKYISPEIMASVLNGK,3.92
21,TVAGKTQDLKYISPEIMASVLNGK,3.24
22,TVAGKWQDLKYISPEIMASVLNGK,2.24
23,TVAGKAQDLKYISPEIMASVLNGK,3.73
24,TVAGKVQDLKYISPEIMASVLNGK,2.45

row,Variant,protein stability index
1,TVAGKSQDLKYISPEIMASVLNGK,2.94
2,TVAGKMQDLKYISPEIMASVLNGK,2.26
3,TVAGKFQDLKYISPEIMASVLNGK,2.75
4,TVAGKLQDLKYISPEIMASVLNGK,2.13
5,TVAGKGQDLKYISPEIMASVLNGK,3.06
6,TVAGKNQDLKYISPEIMASVLNGK,2.96
7,TVAGKCQDLKYISPEIMASVLNGK,2.57
8,TVAGKYQDLKYISPEIMASVLNGK,3.25
9,TVAGKRQDLKYISPEIMASVLNGK,2.81
10,TVAGKQQDLKYISPEIMASVLNGK,3.43
11,TVAGKHQDMKYISPEIMASVLNGK,3.29
12,TVAGKHQDPKYISPEIMASVLNGK,3.37
13,TVAGKHQDCKYISPEIMASVLNGK,3.13
14,TVAGKHQDGKYISPEIMASVLNGK,3.77
15,TVAGKHQDAKYISPEIMASVLNGK,3.44
16,TVAGKHQDRKYISPEIMASVLNGK,3.51
17,TVAGKHQDNKYISPEIMASVLNGK,3.72
18,TVAGKHQDHKYISPEIMASVLNGK,3.65
19,TVAGKHQDYKYISPEIMASVLNGK,3.08
20,TVAGKHQDKKYISPEIMASVLNGK,3.74
21,TVAGKHQDQKYISPEIMASVLNGK,3.71
22,TVAGKHQDSKYISPEIMASVLNGK,3.33
23,TVAGKHQDTKYISPEIMASVLNGK,3.47
24,TVAGKHQDFKYISPEIMASVLNGK,3.1

row,Variant,protein stability index
1,TVAGKHQDIKYISPEIMASVLNGK,3.25
2,TVAGKHQDEKYISPEIMASVLNGK,3.94
3,TVAGKHQDWKYISPEIMASVLNGK,2.81
4,TVAGKHQDVKYISPEIMASVLNGK,3.27
5,TVAGKHQDDKYISPEIMASVLNGK,4.09
6,TVAGKHQDLKYIEPEIMASVLNGK,3.69
7,TVAGKHQDLKYIKPEIMASVLNGK,3.16
8,TVAGKHQDLKYITPEIMASVLNGK,3.15
9,TVAGKHQDLKYIYPEIMASVLNGK,2.63
10,TVAGKHQDLKYIGPEIMASVLNGK,3.37
11,TVAGKHQDLKYIPPEIMASVLNGK,3.12
12,TVAGKHQDLKYIMPEIMASVLNGK,2.31
13,TVAGKHQDLKYIHPEIMASVLNGK,2.71
14,TVAGKHQDLKYILPEIMASVLNGK,2.49
15,TVAGKHQDLKYIDPEIMASVLNGK,3.73
16,TVAGKHQDLKYIIPEIMASVLNGK,2.19
17,TVAGKHQDLKYIRPEIMASVLNGK,3.21
18,TVAGKHQDLKYIQPEIMASVLNGK,3.53
19,TVAGKHQDLKYIAPEIMASVLNGK,3.4
20,TVAGKHQDLKYIFPEIMASVLNGK,2.39
21,TVAGKHQDLKYIVPEIMASVLNGK,2.65
22,TVAGKHQDLKYICPEIMASVLNGK,2.43
23,TVAGKHQDLKYIWPEIMASVLNGK,2.12
24,TVAGKHQDLKYINPEIMASVLNGK,3.32

row,Variant,protein stability index
1,TVAGKHQELKYISPEIMASVLNGK,3.21
2,TVAGKHQNLKYISPEIMASVLNGK,2.62
3,TVAGKHQGLKYISPEIMASVLNGK,3.06
4,TVAGKHQPLKYISPEIMASVLNGK,2.91
5,TVAGKHQRLKYISPEIMASVLNGK,2.28
6,TVAGKHQILKYISPEIMASVLNGK,2.35
7,TVAGKHQYLKYISPEIMASVLNGK,1.9
8,TVAGKHQVLKYISPEIMASVLNGK,2.66
9,TVAGKHQMLKYISPEIMASVLNGK,2.25
10,TVAGKHQKLKYISPEIMASVLNGK,2.54
11,TVAGKHQHLKYISPEIMASVLNGK,2.51
12,TVAGKHQALKYISPEIMASVLNGK,2.65
13,TVAGKHQLLKYISPEIMASVLNGK,2.05
14,TVAGKHQFLKYISPEIMASVLNGK,1.87
15,TVAGKHQTLKYISPEIMASVLNGK,2.56
16,TVAGKHQSLKYISPEIMASVLNGK,2.63
17,TVAGKHQWLKYISPEIMASVLNGK,1.68
18,TVAGKHQCLKYISPEIMASVLNGK,2.32
19,TVAGKHQQLKYISPEIMASVLNGK,2.5
20,TVAGKHQDLVYISPEIMASVLNGK,2.24
21,TVAGKHQDLMYISPEIMASVLNGK,2.69
22,TVAGKHQDLEYISPEIMASVLNGK,3.42
23,TVAGKHQDLQYISPEIMASVLNGK,2.85
24,TVAGKHQDLCYISPEIMASVLNGK,2.52

row,Variant,protein stability index
1,TVAGKHQDLSYISPEIMASVLNGK,2.99
2,TVAGKHQDLRYISPEIMASVLNGK,2.8
3,TVAGKHQDLAYISPEIMASVLNGK,2.99
4,TVAGKHQDLTYISPEIMASVLNGK,3.31
5,TVAGKHQDLLYISPEIMASVLNGK,1.9
6,TVAGKHQDLWYISPEIMASVLNGK,1.62
7,TVAGKHQDLYYISPEIMASVLNGK,1.76
8,TVAGKHQDLNYISPEIMASVLNGK,3.34
9,TVAGKHQDLGYISPEIMASVLNGK,3.44
10,TVAGKHQDLFYISPEIMASVLNGK,1.78
11,TVAGKHQDLPYISPEIMASVLNGK,3.21
12,TVAGKHQDLHYISPEIMASVLNGK,2.88
13,TVAGKHQDLDYISPEIMASVLNGK,3.85
14,TVAGKHQDLIYISPEIMASVLNGK,1.69
15,TVAGKHADLKYISPEIMASVLNGK,2.85
16,TVAGKHMDLKYISPEIMASVLNGK,2.7
17,TVAGKHDDLKYISPEIMASVLNGK,3.06
18,TVAGKHIDLKYISPEIMASVLNGK,2.37
19,TVAGKHSDLKYISPEIMASVLNGK,3.16
20,TVAGKHGDLKYISPEIMASVLNGK,3.08
21,TVAGKHPDLKYISPEIMASVLNGK,3.24
22,TVAGKHFDLKYISPEIMASVLNGK,2.3
23,TVAGKHWDLKYISPEIMASVLNGK,2.36
24,TVAGKHVDLKYISPEIMASVLNGK,3.17

row,Variant,protein stability index
1,TVAGKHYDLKYISPEIMASVLNGK,2.49
2,TVAGKHCDLKYISPEIMASVLNGK,2.79
3,TVAGKHEDLKYISPEIMASVLNGK,3.52
4,TVAGKHTDLKYISPEIMASVLNGK,2.69
5,TVAGKHHDLKYISPEIMASVLNGK,3.27
6,TVAGKHNDLKYISPEIMASVLNGK,2.46
7,TVAGKHKDLKYISPEIMASVLNGK,2.6
8,TVAGKHRDLKYISPEIMASVLNGK,2.64
9,TVAGKHLDLKYISPEIMASVLNGK,2.62
10,TVAGKHQDLKYISIEIMASVLNGK,2.76
11,TVAGKHQDLKYISKEIMASVLNGK,2.96
12,TVAGKHQDLKYISLEIMASVLNGK,2.4
13,TVAGKHQDLKYISFEIMASVLNGK,2.24
14,TVAGKHQDLKYISMEIMASVLNGK,2.02
15,TVAGKHQDLKYISGEIMASVLNGK,3.14
16,TVAGKHQDLKYISAEIMASVLNGK,2.41
17,TVAGKHQDLKYISCEIMASVLNGK,1.85
18,TVAGKHQDLKYISDEIMASVLNGK,3.4
19,TVAGKHQDLKYISHEIMASVLNGK,2.19
20,TVAGKHQDLKYISEEIMASVLNGK,3.49
